# According to IntAct's records for PubMed 22483987:
# B1: Glutamate receptor ionotropic, kainate 2 (Rattus norvegicus (Rat)), P42260 (parent)
# chain: MKIISPVLSNLVFSRSIKVLLCLLWIGYSQGTTHVLRFGGIFEYVESGPMGAEELAFRFAVNTINRNRTLLPNTTLTYDTQKINLYDSFEASKKACDQLSLGVAAIFGPSHSSSANAVQSICNALGVPHIQTRWKHQVSDNKDSFYVSLYPDFSSLSRAILDLVQFFKWKTVTVVYDDSTGLIRLQELIKAPSRYNLRLKIRQLPADTKDAKPLLKEMKRGKEFHVIFDCSHEMAAGILKQALAMGMMTEYYHYIFTTLDLFALDVEPYRYSGVNMTGFRILNTENTQVSSIIEKWSMERLQAPPKPDSGLLDGFMTTDAALMYDAVHVVSVAVQQFPQMTVSSLQCNRHKPWRFGTRFMSLIKEAHWEGLTGRITFNKTNGLRTDFDLDVISLKEEGLEKIGTWDPASGLNMTESQKGKPANITDSLSNRSLIVTTILEEPYVLFKKSDKPLYGNDRFEGYCIDLLRELSTILGFTYEIRLVEDGKYGAQDDVNGQWNGMVRELIDHKADLAVAPLAITYVREKVIDFSKPFMTLGISILYRKPNGTNPGVFSFLNPLSPDIWMYILLAYLGVSCVLFVIARFSPYEWYNPHPCNPDSDVVENNFTLLNSFWFGVGALMQQGSELMPKALSTRIVGGIWWFFTLIIISSYTANLAAFLTVERMESPIDSADDLAKQTKIEYGAVEDGATMTFFKKSKISTYDKMWAFMSSRRQSVLVKSNEEGIQRVLTSDYAFLMESTTIEFVTQRNCNLTQIGGLIDSKGYGVGTPMGSPYRDKITIAILQLQEEGKLHMMKEKWWRGNGCPEEESKEASALGVQNIGGIFIVLAAGLVLSVFVAVGEFLYKSKKNAQLEKRSFCSAMVEELRMSLKCQRRLKHKPQAPVIVKTEEVINMHTFNDRRLPGKETMA
# Variants of: B1
# Settings: with MAP3K11, Q16584
# Chain of MAP3K11, Q16584 (Q16584 whole entry, looked up): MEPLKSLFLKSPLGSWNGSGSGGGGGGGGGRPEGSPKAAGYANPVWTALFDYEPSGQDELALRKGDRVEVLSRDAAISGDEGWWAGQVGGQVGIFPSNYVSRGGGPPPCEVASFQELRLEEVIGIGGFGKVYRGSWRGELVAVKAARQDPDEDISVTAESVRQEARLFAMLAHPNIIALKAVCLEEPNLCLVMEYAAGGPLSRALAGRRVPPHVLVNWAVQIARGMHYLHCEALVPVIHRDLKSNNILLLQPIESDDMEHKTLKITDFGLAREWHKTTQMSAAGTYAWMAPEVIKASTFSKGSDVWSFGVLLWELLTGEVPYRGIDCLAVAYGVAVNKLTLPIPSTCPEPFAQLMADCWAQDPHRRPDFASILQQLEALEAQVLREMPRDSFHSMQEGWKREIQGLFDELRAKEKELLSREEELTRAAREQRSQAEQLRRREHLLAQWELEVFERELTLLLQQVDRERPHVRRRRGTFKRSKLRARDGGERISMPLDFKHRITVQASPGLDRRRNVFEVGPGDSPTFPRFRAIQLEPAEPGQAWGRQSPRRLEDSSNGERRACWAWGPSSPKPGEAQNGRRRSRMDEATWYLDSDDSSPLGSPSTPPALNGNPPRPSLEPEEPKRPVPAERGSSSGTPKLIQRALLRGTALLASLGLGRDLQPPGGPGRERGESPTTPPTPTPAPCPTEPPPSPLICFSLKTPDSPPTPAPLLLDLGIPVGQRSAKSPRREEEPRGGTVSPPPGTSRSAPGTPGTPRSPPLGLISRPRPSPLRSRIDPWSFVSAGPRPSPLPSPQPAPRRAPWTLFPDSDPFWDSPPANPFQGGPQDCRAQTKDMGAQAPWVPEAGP
row,Variant,effect of a mutation on the interaction
1,K886R,decreasing interaction
